According to the supplement of paper PMC10724198:
± gives the standard deviation of the averaged measurements.

Columns and labels:
[1] = system: Saccharomyces cerevisiae; experiment: protein stability index of tFT-peptide fusion (C-terminal peptide) (PSI (0-1 scale)); higher = more stable (slower turnover)
Experimental: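 MPS profiling in S. cerevisiae of the tFT-X12 degron library: putative degron peptides plus stable controls, 12 aa, fused to the C-terminus of a sfGFP-mCherry timer. Cells are FACS-sorted into 8 mCherry/sfGFP bins and deep-sequenced. PSI runs from 0 (unstable) to 1 (stable). Backgrounds are wild type, das1Δ and doa10Δ at 30 °C, and wild type, das1Δ, cdc34-1 and cdc53-1 at 37 °C; 2-3 technical replicates each.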

[2] = system: Saccharomyces cerevisiae; experiment: as above; conditions: genetic background: wild type; temperature: 30 C
[3] = genetic background: cdc34-1, temperature: 37 C
[4] = genetic background: cdc53-1, temperature: 37 C
[5] = genetic background: das1 deletion, temperature: 30 C
[6] = genetic background: das1 deletion, temperature: 37 C
[7] = genetic background: doa10 deletion, temperature: 30 C
[8] = genetic background: wild type, temperature: 30 C
[9] = genetic background: wild type, temperature: 37 C
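Note: PSI is a weighted mean of sequencing reads over stability bins, variants kept only with over 10 reads, mCherry proximal and sfGFP distal, peptide attached via GGGS linker.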

| Sequence | protein stability index [1, 3] | protein stability index [1, 4] | protein stability index [1, 5] | protein stability index [1, 6] | protein stability index [1, 7] | protein stability index [1, 8] | protein stability index [1, 9] | protein stability index [2] |
| --- | --- | --- | --- | --- | --- | --- | --- | --- |
| HDRLRGVFWRVP | 0.669 ± 0.066 | 0.739 ± 0.01 | 0.655 ± 0.038 | 0.74321 ± 0.00071 | 0.263 ± 0.015 | 0.308 ± 0.032 | 0.5752 ± 0.0019 | 0.439 ± 0.014 |
| GAVKCLVCLAVW | 0.282 ± 0.0035 | 0.365 ± 0.054 | 0.309 ± 0.032 | 0.4138 ± 0.0017 | 0.26 ± 0.011 | 0.3 ± 0.026 | 0.3844 ± 0.00071 | 0.404 ± 0.022 |
| KLCVGLVLSFVC | 0.47 ± 0.021 | 0.503 ± 0.043 | 0.341 ± 0.028 | 0.5351 ± 0.0032 | 0.176 ± 0.0034 | 0.206 ± 0.023 | 0.3964 ± 0.0008 | 0.257 ± 0.053 |
| MALAVRVVKCGA | 0.328 ± 0.016 | 0.376 ± 0.0062 | 0.275 ± 0.031 | 0.4361 ± 0.0027 | 0.221 ± 0.006 | 0.268 ± 0.034 | 0.397 ± 0.0054 | 0.384 ± 0.028 |
| LWFFVGFAVYGG | 0.302 ± 0.0084 | 0.438 ± 0.018 | 0.346 ± 0.036 | 0.513 ± 0.019 | 0.306 ± 0.012 | 0.371 ± 0.0059 | 0.497 ± 0.058 | 0.455 ± 0.0066 |
| FILATGKGRWVV | 0.686 ± 0.044 | 0.776 ± 0.017 | 0.636 ± 0.0087 | 0.7432 ± 0.0033 | 0.266 ± 0.0031 | 0.306 ± 0.029 | 0.532 ± 0.024 | 0.333 ± 0.1 |
| NLTAIIYTLVVD | 0.2313 ± 0.0018 | 0.466 ± 0.23 | 0.218 ± 0.032 | 0.444 ± 0.018 | 0.197 ± 0.016 | 0.225 ± 0.028 | 0.3944 ± 0.00021 | 0.31 ± 0.015 |
| PGRHSVRFVFVC | 0.349 ± 0.023 | 0.519 ± 0.046 | 0.444 ± 0.019 | 0.581 ± 0.024 | 0.113 ± 0.0067 | 0.112 ± 0.028 | 0.143 ± 0.0068 | 0.208 ± 0.06 |
